Assays:
Test in all cases: inhibition of transduction of human primary myotubes by virus pre-incubated with recombinant soluble integrin (affinity as inferred by the filing)
[1] = biological target: T1, recombinant soluble human integrin heterodimer αVβ8 (human, UniProt P06756 31-992; P26012 43-684)
T1 construct: Bought (R&D Systems); also called αVβ8 recombinant protein; αVb8

[2] = biological target: T2, recombinant soluble human integrin heterodimer αVβ1 (human, UniProt P06756 31-992; P05556 21-728)
T2 construct: Bought (R&D Systems); also called αVβ1 recombinant protein; αVb1
T2 sequence (P06756 31-992 limits assumed, chain 1 of 2): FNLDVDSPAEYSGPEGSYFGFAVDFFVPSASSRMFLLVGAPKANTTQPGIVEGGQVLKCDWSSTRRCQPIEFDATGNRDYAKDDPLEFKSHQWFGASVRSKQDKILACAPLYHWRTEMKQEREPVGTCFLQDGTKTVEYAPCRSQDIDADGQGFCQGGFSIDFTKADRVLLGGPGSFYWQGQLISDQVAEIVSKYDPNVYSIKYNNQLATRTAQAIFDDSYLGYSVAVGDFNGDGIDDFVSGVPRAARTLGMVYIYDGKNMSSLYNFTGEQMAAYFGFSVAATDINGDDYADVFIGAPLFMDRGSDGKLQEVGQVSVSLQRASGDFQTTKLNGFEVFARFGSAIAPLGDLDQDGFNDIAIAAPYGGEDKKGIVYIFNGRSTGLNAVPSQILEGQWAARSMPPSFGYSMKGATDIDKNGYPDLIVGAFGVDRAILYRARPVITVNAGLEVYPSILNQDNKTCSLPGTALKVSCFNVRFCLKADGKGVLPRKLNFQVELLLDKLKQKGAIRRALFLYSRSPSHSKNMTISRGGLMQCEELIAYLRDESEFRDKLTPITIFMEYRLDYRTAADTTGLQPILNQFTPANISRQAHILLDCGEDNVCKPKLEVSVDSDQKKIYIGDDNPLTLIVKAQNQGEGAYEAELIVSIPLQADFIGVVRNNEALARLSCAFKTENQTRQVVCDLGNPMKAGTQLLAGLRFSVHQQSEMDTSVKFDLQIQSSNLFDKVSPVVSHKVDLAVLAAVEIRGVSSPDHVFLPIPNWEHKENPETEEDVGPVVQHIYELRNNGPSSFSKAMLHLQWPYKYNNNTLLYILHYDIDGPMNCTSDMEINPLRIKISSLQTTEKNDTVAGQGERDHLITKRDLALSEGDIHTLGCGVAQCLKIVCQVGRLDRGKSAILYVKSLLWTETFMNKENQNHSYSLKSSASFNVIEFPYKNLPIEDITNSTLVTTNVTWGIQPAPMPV
T2 sequence (P05556 21-728 limits assumed, chain 2 of 2): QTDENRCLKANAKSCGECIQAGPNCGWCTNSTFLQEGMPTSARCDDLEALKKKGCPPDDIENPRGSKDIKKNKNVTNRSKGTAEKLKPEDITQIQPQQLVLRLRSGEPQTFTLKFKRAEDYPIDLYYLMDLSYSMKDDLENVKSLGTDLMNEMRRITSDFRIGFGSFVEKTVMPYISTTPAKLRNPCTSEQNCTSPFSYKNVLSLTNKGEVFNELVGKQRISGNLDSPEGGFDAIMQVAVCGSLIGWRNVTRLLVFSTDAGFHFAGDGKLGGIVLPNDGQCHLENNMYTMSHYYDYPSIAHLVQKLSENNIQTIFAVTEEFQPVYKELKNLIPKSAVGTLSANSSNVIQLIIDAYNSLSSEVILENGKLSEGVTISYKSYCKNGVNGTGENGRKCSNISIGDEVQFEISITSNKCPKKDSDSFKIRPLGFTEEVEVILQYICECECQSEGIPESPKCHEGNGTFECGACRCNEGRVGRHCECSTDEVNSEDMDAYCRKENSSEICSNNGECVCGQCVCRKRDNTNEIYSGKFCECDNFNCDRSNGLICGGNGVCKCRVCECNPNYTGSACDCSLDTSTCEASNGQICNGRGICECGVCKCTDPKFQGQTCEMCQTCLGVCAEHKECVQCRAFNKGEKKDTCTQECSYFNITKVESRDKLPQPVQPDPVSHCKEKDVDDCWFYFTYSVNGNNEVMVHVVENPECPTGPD

[3] = biological target: T3, recombinant soluble human integrin heterodimer αVβ6 (human, UniProt P06756 31-992; P18564 22-707)
T3 construct: Bought (R&D Systems); also called αVβ6 recombinant protein; αVb6
T3 sequence (P06756 31-992 limits assumed, chain 1 of 2): as the sequence (P06756 31-992 limits assumed, chain 1 of 2) above
T3 sequence (P18564 22-707 limits assumed, chain 2 of 2): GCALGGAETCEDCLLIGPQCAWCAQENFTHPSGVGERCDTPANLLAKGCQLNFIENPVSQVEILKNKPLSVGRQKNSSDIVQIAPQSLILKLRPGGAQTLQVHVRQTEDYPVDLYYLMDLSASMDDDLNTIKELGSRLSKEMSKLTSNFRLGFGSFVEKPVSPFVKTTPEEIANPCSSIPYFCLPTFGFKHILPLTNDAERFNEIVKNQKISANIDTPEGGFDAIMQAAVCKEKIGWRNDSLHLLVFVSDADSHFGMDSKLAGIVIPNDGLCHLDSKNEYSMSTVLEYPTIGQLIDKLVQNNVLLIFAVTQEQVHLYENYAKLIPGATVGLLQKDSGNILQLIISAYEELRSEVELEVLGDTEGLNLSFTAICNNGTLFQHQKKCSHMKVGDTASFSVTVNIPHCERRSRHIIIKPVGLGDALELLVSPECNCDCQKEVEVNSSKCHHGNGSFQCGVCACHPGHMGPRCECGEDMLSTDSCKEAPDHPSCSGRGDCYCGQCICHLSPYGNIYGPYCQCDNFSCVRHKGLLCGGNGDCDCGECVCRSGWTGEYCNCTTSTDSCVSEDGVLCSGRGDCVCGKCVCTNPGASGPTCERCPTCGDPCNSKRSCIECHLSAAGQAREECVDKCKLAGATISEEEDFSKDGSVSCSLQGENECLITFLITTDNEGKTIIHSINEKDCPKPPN

[4] = biological target: T4, recombinant soluble human integrin heterodimer αVβ3 (human, UniProt P06756 31-992; P05106 27-718)
T4 construct: Bought (R&D Systems); also called αVβ3 recombinant protein; αVb3
T4 sequence (P06756 31-992 limits assumed, chain 1 of 2): as the sequence (P06756 31-992 limits assumed, chain 1 of 2) above
T4 sequence (P05106 27-718 limits assumed, chain 2 of 2): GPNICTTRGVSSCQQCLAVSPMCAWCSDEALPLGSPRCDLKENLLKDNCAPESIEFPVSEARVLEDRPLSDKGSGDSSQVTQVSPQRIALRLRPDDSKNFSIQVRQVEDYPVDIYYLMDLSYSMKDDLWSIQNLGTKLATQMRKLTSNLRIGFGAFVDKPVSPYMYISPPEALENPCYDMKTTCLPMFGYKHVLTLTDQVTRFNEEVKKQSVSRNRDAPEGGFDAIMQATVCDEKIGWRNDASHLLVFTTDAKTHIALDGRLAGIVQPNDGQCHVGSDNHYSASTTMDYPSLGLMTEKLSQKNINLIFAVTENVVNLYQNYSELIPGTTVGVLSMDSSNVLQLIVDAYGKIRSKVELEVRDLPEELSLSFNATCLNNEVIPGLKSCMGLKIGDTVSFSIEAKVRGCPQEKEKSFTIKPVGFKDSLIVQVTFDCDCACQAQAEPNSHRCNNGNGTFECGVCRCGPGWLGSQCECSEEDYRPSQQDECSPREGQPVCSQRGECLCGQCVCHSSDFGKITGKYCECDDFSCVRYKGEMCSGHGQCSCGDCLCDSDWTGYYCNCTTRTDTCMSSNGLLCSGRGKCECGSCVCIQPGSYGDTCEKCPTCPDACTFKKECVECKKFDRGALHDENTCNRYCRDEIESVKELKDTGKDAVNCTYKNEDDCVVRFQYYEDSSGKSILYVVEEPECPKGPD

Measured: binding result

T1 sequence (P06756 31-992 limits assumed, chain 1 of 2): as the sequence (P06756 31-992 limits assumed, chain 1 of 2) above
T1 sequence (P26012 43-684 limits assumed, chain 2 of 2): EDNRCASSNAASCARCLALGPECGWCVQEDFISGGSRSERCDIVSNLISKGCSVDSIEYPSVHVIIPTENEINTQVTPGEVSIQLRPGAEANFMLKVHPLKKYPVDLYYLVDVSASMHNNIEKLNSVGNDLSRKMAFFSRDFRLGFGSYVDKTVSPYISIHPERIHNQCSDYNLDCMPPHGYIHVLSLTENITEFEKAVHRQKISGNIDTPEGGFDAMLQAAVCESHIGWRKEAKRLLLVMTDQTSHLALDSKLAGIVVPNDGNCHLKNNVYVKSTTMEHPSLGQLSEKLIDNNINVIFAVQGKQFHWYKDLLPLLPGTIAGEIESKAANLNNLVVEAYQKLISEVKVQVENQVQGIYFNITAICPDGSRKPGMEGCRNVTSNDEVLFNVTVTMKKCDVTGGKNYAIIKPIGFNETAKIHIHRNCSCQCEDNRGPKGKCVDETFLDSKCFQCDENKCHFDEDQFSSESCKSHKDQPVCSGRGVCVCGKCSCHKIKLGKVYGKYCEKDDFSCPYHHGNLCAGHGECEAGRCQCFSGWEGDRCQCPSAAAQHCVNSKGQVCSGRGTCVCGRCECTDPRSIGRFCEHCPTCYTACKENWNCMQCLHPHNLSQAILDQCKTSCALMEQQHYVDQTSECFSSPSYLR

B1: MyoAAV 2A (other)
chain: MAADGYLPDWLEDNLSEGIREWWALKPGAPQPKANQQHQDNARGLVLPGYKYLGPGNGLDKGEPVNAADAAALEHDKAYDQQLKAGDNPYLKYNHADAEFQERLKEDTSFGGNLGRAVFQAKKRLLEPLGLVEEAAKTAPGKKRPVEQSPQEPDSSAGIGKSGAQPAKKRLNFGQTGDTESVPDPQPIGEPPAAPSGVGSLTMASGGGAPVADNNEGADGVGSSSGNWHCDSQWLGDRVITTSTRTWALPTYNNHLYKQISNSTSGGSSNDNAYFGYSTPWGYFDFNRFHCHFSPRDWQRLINNNWGFRPKRLNFKLFNIQVKEVTDNNGVKTIANNLTSTVQVFTDSDYQLPYVLGSAHEGCLPPFPADVFMIPQYGYLTLNDGSQAVGRSSFYCLEYFPSQMLRTGNNFQFSYEFENVPFHSSYAHSQSLDRLMNPLIDQYLYYLSKTINGSGQNQQTLKFSVAGPSNMAVQGRNYIPGPSYRQQRVSTTVTQNNNSEFAWPGASSWALNGRNSLMNPGPAMASHKEGEDRFFPLSGSLIFGKQGTGRDNVDADKVMITNEEEIKTTNPVATESYGQVATNHQGPGRGDQTTLAQAQTGWVQNQGILPGMVWQDRDVYLQGPIWAKIPHTDGNFHPSPLMGGFGMKHPPPQILIKNTPVPADPPTAFNKDKLNSFITQYSTGQVSVEIEWELQKENSKRWNPEIQYTSNYYKSNNVEFAVNTEGVYSEPRPIGTRYLTRNL
notes: Recombinant AAV particle; also called EMyoAAV; enhanced MyoAAV
binds: all assays above

Source: patent US20250090688A1 (BROAD INSTITUTE, published 2025)
